Paper PMC13342644, “Structural basis for transport and inhibition of nucleotide sugar transport in pathogenic fungi” (Nature Communications, 2026)

B1: nanobody NB4 (VHH)
VHH: QVQLVESGGGLVQAGGSLRLSCAASGRTFRSYTLGWFRQAPGKEREFVAAIKWSTDTTYYADSVKGRFTISGDNAKNTVYLQMNSLKPEDTAVYFCAARSLSTVIAGPEIPWPYNSWGQGTQVTVSS
notes: not shown: Myc, C-terminal, kept; His, C-terminal, kept
B2: nanobody NB3 (VHH)
VHH: QVQLVESGGGLVQPGGSLRLSCAASGSISEINVMGWYRQAPGKQRELVARITTGGSTNYADSVKGRFTISRDNAKNTVYLQMNSLKPEDTAVYMCNAHRRVVMEWGPLGYDYWGQGTQVTVSS
notes: as for B1
B3: NB2 (VHH)
VHH: QVQLVESGGGLVQPGGSLRLSCAASRIKRNIMSMGWYRQAPGKQRELVATLLRGGVTNYADSVKGRFTISRDNAKNTLYLQMNSLKPEDTAVYYCTLKEQMFDTTYWGQGTQVTVSS
B4: NB1 (VHH)
VHH: QVQLVESGGGLVQPGGSLRLSCAASGTSFTINVMAWYRQAPGKQRELVAGITSGGTTNYADAVKGRFAITSDNAKNTVYLQMNGLKSEDTAVYYCNAATTVPYPDYGFSLGTYDYEAWGQGTQVTVSS

Columns and labels:
[1] = molecular target: T1, Avi-tagged, biotinylated GDP-mannose transporter Vrg4 from Candida albicans (Candida albicans (SC5314 entry Q5A477), UniProt Q5A477); assay: ELISA; settings: both partners purified
T1 construct: also called biotinylated CaVrg4; source: S. cerevisiae strain BJ5460, purified as the untagged version, biotinylated using BirA ligase; not shown: Avi tag, C-terminal, kept
T1 sequence (Q5A477 34-371, one chain of several): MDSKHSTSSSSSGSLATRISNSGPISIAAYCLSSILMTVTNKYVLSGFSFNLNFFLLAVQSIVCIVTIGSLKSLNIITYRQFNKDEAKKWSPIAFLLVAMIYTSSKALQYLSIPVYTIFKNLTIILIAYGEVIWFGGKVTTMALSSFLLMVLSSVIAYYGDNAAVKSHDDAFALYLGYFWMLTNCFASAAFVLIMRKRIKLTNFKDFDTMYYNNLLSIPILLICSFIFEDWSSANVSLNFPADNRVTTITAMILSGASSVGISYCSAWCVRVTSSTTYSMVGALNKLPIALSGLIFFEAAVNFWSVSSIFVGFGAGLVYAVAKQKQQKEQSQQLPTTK

[2] = molecular target: GDP-mannose transporter Vrg4 from Candida albicans (Candida albicans, UniProt Q5A477)
GDP-mannose transporter Vrg4 from Candida albicans, sequence (Q5A477 34-371): as the sequence (Q5A477 34-371, one chain of several) above

| Binder | Kd [1] | Kd [2] |
| --- | --- | --- |
| B1 | ~0.01 µM | – |
| B2 | ~0.003 µM | – |
| B3 | – | 0.125 µM |
| B4 | – | 0.109 µM |
